B1: Lymphokine-activated killer T-cell-originated protein kinase (Homo sapiens), Q96KB5 (parent)
chain: MEGISNFKTPSKLSEKKKSVLCSTPTINIPASPFMQKLGFGTGVNVYLMKRSPRGLSHSPWAVKKINPICNDHYRSVYQKRLMDEAKILKSLHHPNIVGYRAFTEANDGSLCLAMEYGGEKSLNDLIEERYKASQDPFPAAIILKVALNMARGLKYLHQEKKLLHGDIKSSNVVIKGDFETIKICDVGVSLPLDENMTVTDPEACYIGTEPWKPKEAVEENGVITDKADIFAFGLTLWEMMTLSIPHINLSNDDDDEDKTFDESDFDDEAYYAALGTRPPINMEELDESYQKVIELFSVCTNEDPKDRPSAAHIVEALETDV
partner: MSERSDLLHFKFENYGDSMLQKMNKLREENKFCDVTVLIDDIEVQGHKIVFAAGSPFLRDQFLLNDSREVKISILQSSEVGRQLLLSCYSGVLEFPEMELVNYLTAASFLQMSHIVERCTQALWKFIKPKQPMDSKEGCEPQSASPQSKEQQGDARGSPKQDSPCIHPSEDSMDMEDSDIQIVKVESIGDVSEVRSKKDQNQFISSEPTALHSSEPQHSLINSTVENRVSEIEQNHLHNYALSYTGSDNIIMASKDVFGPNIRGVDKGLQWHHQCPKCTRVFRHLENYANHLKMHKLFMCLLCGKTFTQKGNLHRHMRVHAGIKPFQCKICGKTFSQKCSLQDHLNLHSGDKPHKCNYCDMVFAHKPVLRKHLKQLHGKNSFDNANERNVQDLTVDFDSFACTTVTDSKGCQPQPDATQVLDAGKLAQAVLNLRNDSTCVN
B2: Translation initiation factor eIF2B subunit beta (Homo sapiens), P49770 (parent)
chain: MPGSAAKGSELSERIESFVETLKRGGGPRSSEEMARETLGLLRQIITDHRWSNAGELMELIRREGRRMTAAQPSETTVGNMVRRVLKIIREEYGRLHGRSDESDQQESLHKLLTSGGLNEDFSFHYAQLQSNIIEAINELLVELEGTMENIAAQALEHIHSNEVIMTIGFSRTVEAFLKEAARKRKFHVIVAECAPFCQGHEMAVNLSKAGIETTVMTDAAIFAVMSRVNKVIIGTKTILANGALRAVTGTHTLALAAKHHSTPLIVCAPMFKLSPQFPNEEDSFHKFVAPEEVLPFTEGDILEKVSVHCPVFDYVPPELITLFISNIGGNAPSYIYRLMSELYHPDDHVL
B3: Protein FRA10AC1 (Homo sapiens), Q70Z53 (parent)
chain: MHGHGGYDSDFSDDERCGESSKRKKRTVEDDLLLQKPFQKEKHGKVAHKQVAAELLDREEARNRRFHLIAMDAYQRHTKFVNDYILYYGGKKEDFKRLGENDKTDLDVIRENHRFLWNEEDEMDMTWEKRLAKKYYDKLFKEYCIADLSKYKENKFGFRWRVEKEVISGKGQFFCGNKYCDKKEGLKSWEVNFGYIEHGEKRNALVKLRLCQECSIKLNFHHRRKEIKSKKRKDKTKKDCEESSHKKSRLSSAEEASKKKDKGHSSSKKSEDSLLRNSDEEESASESELWKGPLPETDEKSQEEEFDEYFQDLFL
B4: Ligand of Numb protein X 2 (Homo sapiens), Q8N448 (parent)
chain: MGTTSDEMVSVEQTSSSSLNPLCFECGQQHWTRENHLYNYQNEVDDDLVCHICLQPLLQPLDTPCGHTFCYKCLRNFLQEKDFCPLDRKRLHFKLCKKSSILVHKLLDKLLVLCPFSSVCKDVMQRCDLEAHLKNRCPGASHRRVALERRKTSRTQAEIENENGPTLLDPAGTLSPEADCLGTGAVPVERHLTSASLSTWSEEPGLDNPAFEESAGADTTQQPLSLPEGEITTIEIHRSNPYIQLGISIVGGNETPLINIVIQEVYRDGVIARDGRLLAGDQILQVNNYNISNVSHNYARAVLSQPCNTLHLTVLRERRFGNRAHNHSDSNSPREEIFQVALHKRDSGEQLGIKLVRRTDEPGVFILDLLEGGLAAQDGRLSSNDRVLAINGHDLKYGTPELAAQIIQASGERVNLTIARPGKPQPGNTIREAGNHSSSSQHHTPPPYYSRPSSHKDLTQCVTCQEKHITVKKEPHESLGMTVAGGRGSKSGELPIFVTSVPPHGCLARDGRIKRGDVLLNINGIDLTNLSHSEAVAMLKASAASPAVALKALEVQIVEEATQNAEEQPSTFSENEYDASWSPSWVMWLGLPSTLHSCHDIVLRRSYLGSWGFSIVGGYEENHTNQPFFIKTIVLGTPAYYDGRLKCGDMIVAVNGLSTVGMSHSALVPMLKEQRNKVTLTVICWPGSLV
partner: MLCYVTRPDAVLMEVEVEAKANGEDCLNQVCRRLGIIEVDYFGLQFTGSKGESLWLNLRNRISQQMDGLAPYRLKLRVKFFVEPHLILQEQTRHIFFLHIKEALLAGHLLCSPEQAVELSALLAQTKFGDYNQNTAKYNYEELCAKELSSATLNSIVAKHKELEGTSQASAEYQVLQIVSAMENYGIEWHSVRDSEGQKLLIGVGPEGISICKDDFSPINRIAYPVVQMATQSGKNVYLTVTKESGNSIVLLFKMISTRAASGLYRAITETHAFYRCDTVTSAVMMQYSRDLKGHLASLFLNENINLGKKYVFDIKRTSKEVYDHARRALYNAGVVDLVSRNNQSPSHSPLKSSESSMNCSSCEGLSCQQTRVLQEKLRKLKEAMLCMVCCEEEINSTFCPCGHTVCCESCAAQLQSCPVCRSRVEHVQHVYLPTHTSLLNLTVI
B5: Coiled-coil domain-containing protein 33 (Homo sapiens), Q8N5R6-5 (parent)
chain: MGEPGPPSPPAPKAAPGLIDSFSEMNNYRRAMQKMAEDILSLRRQASILEGENRILRSRLAQQEEEEGQGKASEAQNTVSMKQKLLLSELDMKKLRDRVQHLQNELIRKNDREKELLLLYQAQQPQAALLKQYQGKLQKMKALEETVRHQEKVIEKMERVLEDRLQDRSKPPPLNRQQGKPYTGFPMLSASGLPLGSMGENLPVELYSVLLAENAKLRTELDKNRHQQAPIILQQQALPVDPGELGAGGDLTERLQETHGPGHSECTETLPAQDLLSGTSDKFNLLAKLEHAQSRILSLESQLEDSARRWGREKQDLATRLQEQEKGFRHPSNSIIIEQPVSDPPGVAPRGSGGGAGSHRTPKVTGP

Variants of: B1
Settings: with zbt26_human ZBTB26, Q9HCK0

| Variant | effect of a mutation on the interaction |
| --- | --- |
| K87M | with no effect |
| E220D | with no effect |
| N107S | disrupting interaction strength |

Variants of: B2
Settings: with ei2bd_human EIF2B4, Q9UI10

| Variant | effect of a mutation on the interaction |
| --- | --- |
| A127V | with no effect |

Variants of: B3
Settings: with tri41_human TRIM41, Q8WV44

| Variant | effect of a mutation on the interaction |
| --- | --- |
| S251F | with no effect |

Variants of: B4
Settings: with mylip_human MYLIP

| Variant | effect of a mutation on the interaction |
| --- | --- |
| S198P | with no effect |

Variants of: B5
Settings: with smad3_human SMAD3, P84022

| Variant | effect of a mutation on the interaction |
| --- | --- |
| P203L | disrupting interaction strength |
| R30L | with no effect |

Variants of: B5
Settings: with aakb2_human PRKAB2, O43741

| Variant | effect of a mutation on the interaction |
| --- | --- |
| P203L | with no effect |
| R30L | with no effect |

Variants of: B5
Settings: with blk_human BLK

| Variant | effect of a mutation on the interaction |
| --- | --- |
| P203L | with no effect |
| R30L | with no effect |
